Reference: PMC9610207 (Viruses, 2022)
No end group written: not given here.

Key:
[1] = molecular target: SNX27 PDZ (amino acids 740–141) (human, UniProt Q96L92 43-136); assay: fluorescence polarisation; details: both partners purified
[2] = molecular target: T1, MPP5 PDZ (amino acids 238–336) (human, UniProt Q8N3R9 238-336); assay: fluorescence polarisation; details: both partners purified
T1 sequence (looked up): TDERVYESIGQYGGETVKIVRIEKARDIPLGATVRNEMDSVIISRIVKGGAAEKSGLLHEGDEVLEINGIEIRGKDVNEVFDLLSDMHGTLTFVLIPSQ

Binder	Kd [1] [µM]	Kd [2] [µM]
EPTTTTSVPL (also: FITC-labeled) [FITC-labeled peptide of the C-terminus of SARS-CoV-2 ORF3a (ORF3A 266-275)]	> 400	
NSSRVPDLLV (also: FITC-labeled, also called peptide from the E protein) [FITC-labeled peptide of the C-terminus of the SARS-CoV-2 E protein (E66-77)]	> 400	400 ± 55
